The source of these data is PMC7060721.

The target in the test is ENLARGED VESSEL ELEMENT (EVE) homolog of Physcomitrella patens (Physcomitrella patens). In words: SEC-MALS.

For “ENLARGED VESSEL ELEMENT (EVE) homolog of Physcomitrella patens (natural protein)”, the stoichiometry N was 5.
